Reference: patent US20100168002A1 (UNIVERSITY OF BRISTOL, published 2010)

Key:
[1] = target: T1, CEACAM1-Fc soluble receptor construct (human, UniProt P13688 35-320); assay: assay not named
T1 construct: also called CC1-Fc; human CEACAM1-Fc; not shown: Fc part, detected with goat anti-human Fc antibodies
T1 sequence: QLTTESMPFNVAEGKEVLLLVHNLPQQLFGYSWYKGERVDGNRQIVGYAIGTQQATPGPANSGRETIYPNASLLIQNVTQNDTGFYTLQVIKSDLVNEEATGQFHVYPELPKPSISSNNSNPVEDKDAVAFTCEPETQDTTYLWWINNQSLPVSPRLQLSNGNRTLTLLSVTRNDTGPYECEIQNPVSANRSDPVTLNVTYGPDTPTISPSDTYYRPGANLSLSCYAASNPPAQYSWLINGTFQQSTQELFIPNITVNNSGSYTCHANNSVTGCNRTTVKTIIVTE

CD33-Fc [2] = target: T2, CD33-Fc (UniProt P20138 18-259); assay: blot overlay
T2 construct: Negative control construct; not shown: Fc part, detected with goat anti-human Fc antibodies
T2 sequence (P20138 18-259 limits assumed): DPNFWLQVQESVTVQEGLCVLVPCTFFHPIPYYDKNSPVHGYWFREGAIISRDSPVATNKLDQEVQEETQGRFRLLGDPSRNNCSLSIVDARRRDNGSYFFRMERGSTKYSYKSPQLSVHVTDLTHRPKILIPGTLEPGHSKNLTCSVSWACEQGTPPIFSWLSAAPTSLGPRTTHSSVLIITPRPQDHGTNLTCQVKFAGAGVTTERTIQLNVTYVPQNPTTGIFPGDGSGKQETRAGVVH

[3] = target: T1, CEACAM1-Fc soluble receptor construct; assay: Western blot overlay with CEACAM1-Fc
CD33-Fc [4] = target: T2, CD33-Fc; assay: dot blot overlay of whole bacteria with soluble receptor

B1: N-terminal recombinant MX2 peptide consisting of amino acids 1 to 449 (peptide)
chain: MNKIYKVKKNAAGHLVACSEFAKGHTKKAVLGSLLIVGILGMATTASAQKVGKATNKISGGDNNTANGTYLTIGGGDYNKTKGRYSTIGGGLFNEATNEYSTIGSGGYNKAKGRYSTIGGGGYNEATNQYSTIGGGDNNTAKGRYSTIGGGGYNEATIENSTVGGGGYNQAKGRNSTVAGGYNNEATGTDSTIAGGRKNQATGKGSFAAGIDNKANADNAVALGNKNTIEGENSVAIGSNNTVKKGQQNVFILGSNTDTTNAQNGSVLLGHNTAGKAATIVNSAEVGGLSLTGFAGASKTGNGTVSVGKKGKERQIVHVGAGEISDTSTDAVNGSQLHALATVVAQNKADIKDLDDEVGLLGEEINSLEGEIFNNQDAIAKNQADIKTLESNVEEGLLDLSGRLIDQKADIDNNINNIYELAQQQDQHSSDIKTLKNNVEEGLLDLSGR
- binding result [1]: no binding

B2: recombinant UspA1 fragment D-8 (peptide)
chain: ASSANTDRIATAELGIAENKKDAQIAKAQANENKDGIAKNQADIQLHDKKITNLGILHSMVARAVGNNTQGVATNKADIAKNQADIANNIKNIYELAQQQDQHSSDIKTLAKVSAANTDRIAKNKAEADASFETLTKNQNTLIEQGEALVEQNKAINQELEGFAAHADVQDKQILQNQADITTNKTAIEQNINRTVANGFEIEKNKAGIATNKQELILQNDRLNRINETNNHQDQKIDQLGYALKEQGQHFNNRISAVERQTAGGIANAIAIATLPSPSRAGEHHVLFGSGYHNGQAAVSLGAAGLSDTGKSTYKIGLSWSDAGGLSGGVGGSYRWK
notes: Limits deduced: D = 527 (see D-7), 8 = 863 (from 6-8, E659-K863); also called D-8 polypeptide; not shown: His tag from the pQE30 vector
- binding result (CD33-Fc [2]): no binding

B3: recombinant UspA1 fragment 6-8 (residues E659-K863 of UspA1 of MX2) (peptide)
chain: ETLTKNQNTLIEQGEALVEQNKAINQELEGFAAHADVQDKQILQNQADITTNKTAIEQNINRTVANGFEIEKNKAGIATNKQELILQNDRLNRINETNNHQDQKIDQLGYALKEQGQHFNNRISAVERQTAGGIANAIAIATLPSPSRAGEHHVLFGSGYHNGQAAVSLGAAGLSDTGKSTYKIGLSWSDAGGLSGGVGGSYRWK
notes: also called P6-P8; not shown: His tag from the pQE30 vector
- binding result [3]: no binding

B4: peptide D-8 with deletion of the region 571-632 (D-8Δ) (peptide)
chain: ASSANTDRIATAELGIAENKKDAQIAKAQANENKDGIAKNQADIIKTLAKVSAANTDRIAKNKAEADASFETLTKNQNTLIEQGEALVEQNKAINQELEGFAAHADVQDKQILQNQADITTNKTAIEQNINRTVANGFEIEKNKAGIATNKQELILQNDRLNRINETNNHQDQKIDQLGYALKEQGQHFNNRISAVERQTAGGIANAIAIATLPSPSRAGEHHVLFGSGYHNGQAAVSLGAAGLSDTGKSTYKIGLSWSDAGGLSGGVGGSYRWK
notes: Outer limits as deduced for D-8 (527-863); the deletion 571-632 is printed; also called control peptide; not shown: His tag from the pQE30 vector
- binding result [1]: no binding

B5: UspA1 protein of Moraxella catarrhalis strain MX2 (ATCC 25238) (ligand)
chain: QKVGKATNKISGGDNNTANGTYLTIGGGDYNKTKGRYSTIGGGLFNEATNEYSTIGSGGYNKAKGRYSTIGGGGYNEATNQYSTIGGGDNNTAKGRYSTIGGGGYNEATIENSTVGGGGYNQAKGRNSTVAGGYNNEATGTDSTIAGGRKNQATGKGSFAAGIDNKANADNAVALGNKNTIEGENSVAIGSNNTVKKGQQNVFILGSNTDTTNAQNGSVLLGHNTAGKAATIVNSAEVGGLSLTGFAGASKTGNGTVSVGKKGKERQIVHVGAGEISDTSTDAVNGSQLHALATVVAQNKADIKDLDDEVGLLGEEINSLEGEIFNNQDAIAKNQADIKTLESNVEEGLLDLSGRLIDQKADIDNNINNIYELAQQQDQHSSDIKTLKNNVEEGLLDLSGRLIDQKADLTKDIKALESNVEEGLLDLSGRLIDQKADIAKNQADIAQNQTDIQDLAAYNELQDAYAKQQTEAIDALNKASSANTDRIATAELGIAENKKDAQIAKAQANENKDGIAKNQADIQLHDKKITNLGILHSMVARAVGNNTQGVATNKADIAKNQADIANNIKNIYELAQQQDQHSSDIKTLAKVSAANTDRIAKNKAEADASFETLTKNQNTLIEQGEALVEQNKAINQELEGFAAHADVQDKQILQNQADITTNKTAIEQNINRTVANGFEIEKNKAGIATNKQELILQNDRLNRINETNNHQDQKIDQLGYALKEQGQHFNNRISAVERQTAGGIANAIAIATLPSPSRAGEHHVLFGSGYHNGQAAVSLGAAGLSDTGKSTYKIGLSWSDAGGLSGGVGGSYRWK
notes: Tested on whole bacteria or in whole cell lysates; migrates at >200 kDa unheated and at circa 92 kDa after boiling; also called MX2 UspA1
- binding result (CD33-Fc [4]): no binding (tested: 1-2 µg ml^-1)
